Assay results taken from article PMC7255924 (The FEBS journal, 2019).

Biological target: T1, C3 domain of Streptococcus mutans adhesin P1 (recombinant C3 polypeptide, 175-residue construct) (Streptococcus mutans)
T1 chain: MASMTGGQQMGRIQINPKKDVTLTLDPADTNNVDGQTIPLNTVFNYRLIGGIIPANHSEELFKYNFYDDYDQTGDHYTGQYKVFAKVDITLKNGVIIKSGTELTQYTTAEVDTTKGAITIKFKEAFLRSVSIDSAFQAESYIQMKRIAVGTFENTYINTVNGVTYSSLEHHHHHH
Assay: ITC

B1: A3VP1 (386–864) polypeptide of Streptococcus mutans adhesin P1 (domain or fragment)
chain: AANEADYQAKLTAYQTELARVQKANADAKAAYEAAVAANNAANAALTAENTAIKKRNADAKADYEAKLAKYQADLAKYQKDLADYPVKLKAYEDEQASIKAALAELEKHKNEDGNLTEPSAQNLVYDLEPNANLSLTTDGKFLKASAVDDAFSKSTSKAKYDQKILQLDDLDITNLEQSNDVASSMELYGNFGDKAGWSTTVSNNSQVKWGSVLLERGQSATATYTNLQNSYYNGKKISKIVYKYTVDPKSKFQGQKVWLGIFTDPTLGVFASAYTGQVEKNTSIFIKNEFTFYDEDGKPINFDNALLSVASLNRENNSIEMAKDYTGKFVKISGSSIGEKNGMIYATDTLNFRQGQGGARWTMYTRASEPGSGWDSSDAPNSWYGAGAIRMSGPNNSVTLGAISSTLVVPADPTMAIETGKKPNIWYSLNGKIRAVNVPKVTKEKPTPPVKPTAPTKPTYETEKPLKPAPVAPNYEKE
KD of the site with intermediate binding constant (two-site fit): 35.2 ± 7 µM
